Measured values reported in patent US9624471B2, “Methods for maturing cardiomyocytes and uses thereof” (UNIVERSITY OF WASHINGTON THROUGH ITS CENTER FOR …, priority 2013, dated 2017).

Experiments:
[1] = system: let-7g OE CMs; test: Whole genome transcriptome profiling (ILLUMINA RNA sequencing) of let-7g OE CMs vs. EV control CMs; type: cell-based, human
Description: To further understand the effects of let-7 OE during cardiomyocyte maturation at a molecular level, the inventors carried out whole genome transcriptome profiling of let-7g OE CMs and corresponding EV control CMs using an ILLUMINA™ RNA sequencing platform. […] Using expression values for the genes that belonged to the 12 pathways (FIG. 1E), the inventors carried out a 2D-PCA comparing let-7g OE CMs and EV control CMs with H7-CMs at day 20 and 1 yr, IMR90iPSC-CMs at 1 yr and 3 month old HFA and HFV samples. […] Further evidence of let-7g directed maturation was observed from known isoform changes accompanying cardiomyocyte maturation, such as shifts in myosin heavy chain (MYH6/MYH7)^29 (FIG. 13). […] Focusing on the 34 differentially spliced genes in common among H7-CM-1yr, let-7 OE and fetal samples (FIG. 4C), the inventors identified the single transcript of each showing the greatest absolute change in proportion between H7-CM day 20 and the above three samples (data not shown). […] The same pattern emerges from analysis of the relative expression levels of all 377 isoforms (data not shown) of these 34 genes again showing that the developmental chronology of the samples is well captured by principal component 1. In short, there are concerted and dynamic changes in splicing during maturation. The fact that both differential splicing and differential expression analyses cluster let-7 OE CMs with H71yr-CM and fetal samples, clearly strengthens the finding that let-7 is critical for maturation.
Total RNAs for HFA and HFV samples were extracted using RNAeasy mini kit (QIAGEN™)^7. Total RNAs for all other samples were extracted with MIRNEASY™ mini kit (QIAGEN™) and were further DNAse treated with DNA-free kit (AMBION™). RNA and Small RNA libraries were prepared independently using TRUSEQ™ library preparation kits (ILLUMINA™) following the manufacturer's protocols. […] Sequence data for miRNAs were analyzed using miRDeep2™ software^8. […] For mRNA sequencing analysis, mRNA reads from samples were mapped to hg19 reference genome using STAR version 2.3.010. BAM files produced by STAR were analyzed with Cufflinks version 2.1.1_11 run in de novo mode. […]
Gene and transcript abundance was estimated using Markov chain Monte Carlo to sample from a hierarchical Bayesian model. […] Under this model, estimates from transcripts with very low data are effectively shrunk towards each other to avoid spuriously highfold-change estimates that can occur when using simple read or fragment count estimates. Expression estimates, measured in transcripts per million (TPM), and adjusted using upper quantile normalization^12, were generated for the Ensembl 74 gene annotation database^13.
Separately, statistical significance of differential expression at the gene level was analyzed using DESeq^14. […]

[2] = system: HECT293FT cells; test: Lipofectamine transient transfection of plko-let-7g and plko-let-7g-E plasmids, mature let-7g and target expression after 24 hrs; type: cell-based; settings: 24 hrs after transfection
Procedure: FIGS. 20A-20B Modified let-7g (let-7g-E) is more efficient in generating mature let-7g in HECT293FT cells. Let-7g and a modified version of let-7g (plko-let-7g-E) were induced in hect 293 FT cells by introducing plko-let-7g and plko-let-7g-E plasmids with lipofectamine transient transfection assay. 24 hrs after transfection, cells were tested for mature let-7g expression. […] (FIG. 20B) Targets of let-7 are repressed when we over-express let-7g-E similar to that seen during over-expression of let-7g.

B1: let-7g: human let-7 family miRNA, SEQ ID NO: 9, overexpressed from pLKO lentiviral pri-miR-let-7g construct (nucleic acid, listed as Homo sapiens)
chain: AGGCUGAGGUAGUAGUUUGUACAGUUUGAGGGUCUAUGAUACCACCCGGUACAGGAGAUAACUGUACAGGCCACUGCCUUGCCA
Which results are given for B1?
maturation markers RYR2, MYH7, KCNJ2 expression ([1]; RNA sequencing, compared to EV control): increased expression; FA metabolism (gene expression, density plots) ([1]; in comparison to EV control): significantly up-regulated; PI3/AKT/Insulin signaling (gene expression, density plots) ([1]; in comparison to EV control): significantly down-regulated; position in dimension 1 of 2D-PCA (genes of 12 pathways) ([1]; vs. H7-CMs day 20 and 1 yr, EV control): closer to 1 yr than the EV and day 20 CMs; Targets of let-7 expression [2]: repressed
